Measurements published in the supplement of paper PMC10126150.
± gives the standard deviation of the averaged measurements.

Test system: ATP
Assay: switch fluorescence ratio, 500 uM ATP over buffer (Cy3 cluster intensity, sum of 5 cycles each) (fold (ratio)); higher = stronger signal-on switching upon ATP binding; sequences stand for … in TCGTCGGCAGCGTCAGATGTGTATAAGAGACAGTTTTTTTTTTTTTTTTTTTTTTTTT…TC
Settings: aptamer strand: ATP DNA aptamer (quencher-CACCTGGGGGAGTATTGCGGAGGAAGG + anchor), 100 nM annealed; ATP concentration: 500 uM
In short: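 For every switch-domain sequence, the fluorescence ratio is the mean of per-cluster values, each being summed target-cycle Cy3 intensity over summed buffer-cycle Cy3 intensity. Clusters outside 100-1000 RFU were excluded. On a modified Illumina MiSeq flow-cell, the Cy3-labelled switching-strand clusters were annealed to 100 nM quencher-labelled ATP aptamer, imaged in selection buffer and then after 15 min with 500 uM ATP at 22 °C. Five such cycles were run, with NaOH stripping and re-annealing between them.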
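Note: ATP exposure 15 min at 22 °C before imaging.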

TGTATTTTGT
switch fluorescence ratio: 0.976 ± 0.022

TGTCAAAGAT
switch fluorescence ratio: 0.9772 ± 0.0044

TGTCACAGTT
switch fluorescence ratio: 1.01 ± 0.013

TGTCAGGGCA
switch fluorescence ratio: 1.02 ± 0.064

TGTCAGTGCG
switch fluorescence ratio: 0.97 ± 0.042

TGTCATAATG
switch fluorescence ratio: 0.97 ± 0.015

TGTCGAAAGA
switch fluorescence ratio: 0.999 ± 0.013

TGTCGACTGT
switch fluorescence ratio: 0.987 ± 0.042

TGTCGGAGGT
switch fluorescence ratio: 1.02 ± 0.05

TGTCGGGGAG
switch fluorescence ratio: 1.01 ± 0.018

TGTCGGGGGG
switch fluorescence ratio: 1.01 ± 0.028

TGTCGGTCGG
switch fluorescence ratio: 0.984 ± 0.015

TGTCGTCTGT
switch fluorescence ratio: 0.9932 ± 0.0063

TGTCTATAGT
switch fluorescence ratio: 0.986 ± 0.036

TGTCTATCGG
switch fluorescence ratio: 0.974 ± 0.014

TGTCTCGCCC
switch fluorescence ratio: 1.02 ± 0.024

TGTCTCTGTC
switch fluorescence ratio: 1.01 ± 0.021

TGTCTGAGGG
switch fluorescence ratio: 1 ± 0.013

TGTCTGCAGC
switch fluorescence ratio: 1.022 ± 0.0085

TGTCTGCTTT
switch fluorescence ratio: 0.997 ± 0.043

TGTCTTTTTT
switch fluorescence ratio: 1.01 ± 0.029

TGTGAAAAAG
switch fluorescence ratio: 0.976 ± 0.053

TGTGAACTTT
switch fluorescence ratio: 1.01 ± 0.012

TGTGAAGGGC
switch fluorescence ratio: 1.02 ± 0.029

TGTGAATGGT
switch fluorescence ratio: 0.985 ± 0.015

TGTGAGGCTT
switch fluorescence ratio: 1.03 ± 0.015

TGTGAGGGCG
switch fluorescence ratio: 1.06 ± 0.015

TGTGATAGGG
switch fluorescence ratio: 0.978 ± 0.06

TGTGATAGGT
switch fluorescence ratio: 1 ± 0.028

TGTGATGGAG
switch fluorescence ratio: 0.979 ± 0.033

TGTGATGGGT
switch fluorescence ratio: 0.996 ± 0.04

TGTGATTTCG
switch fluorescence ratio: 0.945 ± 0.048

TGTGCGGGGT
switch fluorescence ratio: 0.974 ± 0.012

TGTGCTAAGT
switch fluorescence ratio: 0.985 ± 0.026

TGTGCTTTGT
switch fluorescence ratio: 1 ± 0.016

TGTGGCAACG
switch fluorescence ratio: 0.974 ± 0.032

TGTGGCCAGG
switch fluorescence ratio: 1.04 ± 0.056

TGTGGCGACG
switch fluorescence ratio: 0.957 ± 0.012

TGTGGCTAGG
switch fluorescence ratio: 1.02 ± 0.029

TGTGGCTTAA
switch fluorescence ratio: 0.9668 ± 0.0021

TGTGGGAGCT
switch fluorescence ratio: 1.04 ± 0.07

TGTGGGAGGT
switch fluorescence ratio: 0.9573 ± 0.0065

TGTGGGATTG
switch fluorescence ratio: 0.993 ± 0.015

TGTGGGCTGT
switch fluorescence ratio: 1.02 ± 0.015

TGTGGGGAAG
switch fluorescence ratio: 0.989 ± 0.016

TGTGGGGAAT
switch fluorescence ratio: 1.04 ± 0.075

TGTGGGGATG
switch fluorescence ratio: 1.01 ± 0.02

TGTGGGGCAT
switch fluorescence ratio: 1.15 ± 0.27

TGTGGGGCC
switch fluorescence ratio: 1.04 ± 0.03

TGTGGGGGGC
switch fluorescence ratio: 1 ± 0.038

TGTGGGGGGG
switch fluorescence ratio: 1.01 ± 0.045

TGTGGGGTCT
switch fluorescence ratio: 1.02 ± 0.038

TGTGGGGTGT
switch fluorescence ratio: 1.039 ± 0.0096

TGTGGGTTGG
switch fluorescence ratio: 0.956 ± 0.018

TGTGGGTTTG
switch fluorescence ratio: 0.958 ± 0.012

TGTGGGTTTT
switch fluorescence ratio: 1.02 ± 0.056

TGTGGTATAT
switch fluorescence ratio: 0.993 ± 0.024

TGTGGTCTGA
switch fluorescence ratio: 1.01 ± 0.09

TGTGGTCTGT
switch fluorescence ratio: 0.981 ± 0.033

TGTGGTGCAG
switch fluorescence ratio: 1 ± 0.042

TGTGGTGGC
switch fluorescence ratio: 0.995 ± 0.019

TGTGGTGGGC
switch fluorescence ratio: 0.967 ± 0.0012

TGTGGTGTTT
switch fluorescence ratio: 0.984 ± 0.036

TGTGGTTTTT
switch fluorescence ratio: 1.01 ± 0.031

TGTGTAAGGG
switch fluorescence ratio: 1.02 ± 0.029

TGTGTACAGG
switch fluorescence ratio: 0.978 ± 0.017

TGTGTACCG
switch fluorescence ratio: 1.01 ± 0.065

TGTGTCACCT
switch fluorescence ratio: 1.09 ± 0.025

TGTGTGCGGC
switch fluorescence ratio: 1 ± 0.028

TGTGTGTGGA
switch fluorescence ratio: 1.04 ± 0.03

TGTGTGTTTT
switch fluorescence ratio: 1.01 ± 0.027

TGTGTTCCAA
switch fluorescence ratio: 1.002 ± 0.0047

TGTGTTGTCA
switch fluorescence ratio: 1.01 ± 0.011

TGTGTTTACT
switch fluorescence ratio: 0.991 ± 0.022

TGTGTTTTAG
switch fluorescence ratio: 0.976 ± 0.015

TGTGTTTTTA
switch fluorescence ratio: 1.006 ± 0.0016

TGTTAAAAAA
switch fluorescence ratio: 1.01 ± 0.02

TGTTAAATGA
switch fluorescence ratio: 0.97 ± 0.013

TGTTAACGGT
switch fluorescence ratio: 0.991 ± 0.071

TGTTAAGGGG
switch fluorescence ratio: 1.18 ± 0.21

TGTTACAGAG
switch fluorescence ratio: 1.01 ± 0.052

TGTTACGGAG
switch fluorescence ratio: 1.009 ± 0.0042

TGTTACGTTT
switch fluorescence ratio: 0.992 ± 0.021

TGTTAGAATC
switch fluorescence ratio: 0.963 ± 0.012

TGTTAGGAAT
switch fluorescence ratio: 1 ± 0.021

TGTTAGGTAG
switch fluorescence ratio: 1.01 ± 0.011

TGTTAGTAAT
switch fluorescence ratio: 1.019 ± 0.0087

TGTTATACAT
switch fluorescence ratio: 1.01 ± 0.024

TGTTATAGAC
switch fluorescence ratio: 1.05 ± 0.041

TGTTATATGT
switch fluorescence ratio: 1.01 ± 0.012

TGTTATTCAT
switch fluorescence ratio: 0.985 ± 0.041

TGTTATTGTT
switch fluorescence ratio: 1.03 ± 0.012

TGTTATTTGA
switch fluorescence ratio: 0.996 ± 0.0056

TGTTCGAGGG
switch fluorescence ratio: 1.02 ± 0.059

TGTTGAATTT
switch fluorescence ratio: 0.958 ± 0.016

TGTTGAGCTC
switch fluorescence ratio: 0.9936 ± 0.0084

TGTTGCAATT
switch fluorescence ratio: 1.01 ± 0.052

TGTTGCATAA
switch fluorescence ratio: 0.968 ± 0.016

TGTTGCGCTA
switch fluorescence ratio: 1.02 ± 0.029

TGTTGCGTTG
switch fluorescence ratio: 0.954 ± 0.039

TGTTGCTCCA
switch fluorescence ratio: 1.05 ± 0.082

TGTTGCTGGG
switch fluorescence ratio: 1 ± 0.026

TGTTGGCAGG
switch fluorescence ratio: 1.02 ± 0.012

TGTTGGGAAC
switch fluorescence ratio: 1.07 ± 0.12

TGTTGGGATT
switch fluorescence ratio: 0.998 ± 0.016

TGTTGGGGCT
switch fluorescence ratio: 0.999 ± 0.04

TGTTGGTATG
switch fluorescence ratio: 0.976 ± 0.038

TGTTGGTGGT
switch fluorescence ratio: 0.988 ± 0.036

TGTTGTAAGT
switch fluorescence ratio: 0.984 ± 0.026

TGTTGTAGAA
switch fluorescence ratio: 0.973 ± 0.013

TGTTGTAGTC
switch fluorescence ratio: 0.965 ± 0.017

TGTTGTGGTC
switch fluorescence ratio: 0.9804 ± 0.0042

TGTTGTGTTT
switch fluorescence ratio: 0.989 ± 0.033

TGTTGTTACC
switch fluorescence ratio: 1.04 ± 0.022

TGTTTAAGGG
switch fluorescence ratio: 1 ± 0.021

TGTTTATCAT
switch fluorescence ratio: 0.978 ± 0.017

TGTTTATTTT
switch fluorescence ratio: 0.982 ± 0.025

TGTTTCATTC
switch fluorescence ratio: 0.978 ± 0.012

TGTTTCCCGT
switch fluorescence ratio: 1 ± 0.022

TGTTTCTACG
switch fluorescence ratio: 1 ± 0.056

TGTTTGACGA
switch fluorescence ratio: 0.991 ± 0.05

TGTTTGAGAT
switch fluorescence ratio: 1.01 ± 0.015

TGTTTGAGGC
switch fluorescence ratio: 0.997 ± 0.044

TGTTTGATAT
switch fluorescence ratio: 0.9917 ± 0.005

TGTTTGGGCC
switch fluorescence ratio: 1.03 ± 0.011

TGTTTGGTGT
switch fluorescence ratio: 0.9948 ± 0.005

TGTTTGTGTT
switch fluorescence ratio: 0.977 ± 0.013

TGTTTGTTAG
switch fluorescence ratio: 1.04 ± 0.048

TGTTTTAAGT
switch fluorescence ratio: 0.999 ± 0.036

TGTTTTAATT
switch fluorescence ratio: 0.99 ± 0.021

TGTTTTACGA
switch fluorescence ratio: 1.07 ± 0.043

TGTTTTAGGA
switch fluorescence ratio: 0.993 ± 0.015

TGTTTTGCGG
switch fluorescence ratio: 0.9696 ± 0.0063

TGTTTTGGAG
switch fluorescence ratio: 1 ± 0.032

TGTTTTGGGC
switch fluorescence ratio: 0.992 ± 0.033

TGTTTTGTGT
switch fluorescence ratio: 1.035 ± 0.0073

TGTTTTGTTT
switch fluorescence ratio: 0.995 ± 0.013

TGTTTTTAAA
switch fluorescence ratio: 0.979 ± 0.029

TGTTTTTAAG
switch fluorescence ratio: 0.99 ± 0.022

TGTTTTTAGC
switch fluorescence ratio: 1.0151 ± 0.00055

TGTTTTTGGC
switch fluorescence ratio: 1 ± 0.025

TGTTTTTTGA
switch fluorescence ratio: 0.99 ± 0.011

TTAAAAAAAG
switch fluorescence ratio: 1.01 ± 0.019

TTAAAAAGG
switch fluorescence ratio: 1.02 ± 0.037

TTAAAAAGTT
switch fluorescence ratio: 1 ± 0.031

TTAAAAATTG
switch fluorescence ratio: 0.957 ± 0.016

TTAAAACCGT
switch fluorescence ratio: 1.02 ± 0.029

TTAAAACGAA
switch fluorescence ratio: 1.01 ± 0.024

TTAAAACGGG
switch fluorescence ratio: 0.969 ± 0.037

TTAAAATATC
switch fluorescence ratio: 0.99948 ± 0.00018

TTAAAATTAT
switch fluorescence ratio: 0.996 ± 0.023

TTAAACAAGC
switch fluorescence ratio: 0.998 ± 0.017

TTAAACCTGG
switch fluorescence ratio: 1.08 ± 0.032

TTAAACTGGT
switch fluorescence ratio: 1.04 ± 0.034

TTAAACTTTT
switch fluorescence ratio: 1.04 ± 0.031

TTAAAGACCT
switch fluorescence ratio: 1.45 ± 0.042

TTAAAGCTGG
switch fluorescence ratio: 0.978 ± 0.017

TTAAAGCTGT
switch fluorescence ratio: 1.02 ± 0.063

TTAAAGCTTT
switch fluorescence ratio: 1.09 ± 0.22

TTAAAGGATC
switch fluorescence ratio: 0.968 ± 0.028

TTAAAGGGCT
switch fluorescence ratio: 0.982 ± 0.044

TTAAAGTCTC
switch fluorescence ratio: 0.946 ± 0.021

TTAAATAAGT
switch fluorescence ratio: 1 ± 0.025

TTAAATAATA
switch fluorescence ratio: 1.09 ± 0.16

TTAAATACGT
switch fluorescence ratio: 1.06 ± 0.049

TTAAATGAAA
switch fluorescence ratio: 1.02 ± 0.013

TTAAATGGTT
switch fluorescence ratio: 0.9783 ± 0.0076

TTAACCGATA
switch fluorescence ratio: 1.04 ± 0.031

TTAACGAGTG
switch fluorescence ratio: 0.999 ± 0.022

TTAACGATGA
switch fluorescence ratio: 1.01 ± 0.044

TTAACGGAGA
switch fluorescence ratio: 1.039 ± 0.0084

TTAACGGTAA
switch fluorescence ratio: 1.09 ± 0.042

TTAACTACCG
switch fluorescence ratio: 1.042 ± 0.0084

TTAACTCGAC
switch fluorescence ratio: 1.07 ± 0.038

TTAAGAACAC
switch fluorescence ratio: 1.04 ± 0.037

TTAAGAATTA
switch fluorescence ratio: 1.03 ± 0.047

TTAAGACTTC
switch fluorescence ratio: 1.02 ± 0.041

TTAAGAGGTT
switch fluorescence ratio: 0.9708 ± 0.0065

TTAAGATAGT
switch fluorescence ratio: 1.02 ± 0.028

TTAAGATTTC
switch fluorescence ratio: 1.13 ± 0.14

TTAAGCATAG
switch fluorescence ratio: 1.69 ± 0.91

TTAAGCCTGG
switch fluorescence ratio: 0.962 ± 0.022

TTAAGCGTTT
switch fluorescence ratio: 0.9948 ± 0.009

TTAAGCTGGC
switch fluorescence ratio: 1.05 ± 0.056

TTAAGGACTC
switch fluorescence ratio: 1.1 ± 0.042

TTAAGGCCAT
switch fluorescence ratio: 1.08 ± 0.13

TTAAGGCCCG
switch fluorescence ratio: 1.01 ± 0.012

TTAAGGCGGG
switch fluorescence ratio: 1 ± 0.05

TTAAGGGATA
switch fluorescence ratio: 1.03 ± 0.082

TTAAGGGCTC
switch fluorescence ratio: 1 ± 0.013

TTAAGGGGGC
switch fluorescence ratio: 0.969 ± 0.042

TTAAGGTTAT
switch fluorescence ratio: 1.02 ± 0.032

TTAAGTAATA
switch fluorescence ratio: 1.02 ± 0.014

TTAAGTAGTG
switch fluorescence ratio: 0.98 ± 0.014

TTAAGTATGT
switch fluorescence ratio: 1.08 ± 0.089

TTAAGTCTAT
switch fluorescence ratio: 0.9889 ± 0.0078

TTAAGTGGGC
switch fluorescence ratio: 1.12 ± 0.17

TTAAGTTATA
switch fluorescence ratio: 1.018 ± 0.0099

TTAAGTTATT
switch fluorescence ratio: 1.03 ± 0.056

TTAAGTTGGG
switch fluorescence ratio: 0.989 ± 0.038
